Data taken from patent US20190263934A1.

Columns and labels:
[1] = target: biotinylated human FcRn (hFcRn; p51 subunit residues 24-297 with C-terminal Avi-tag, β2-m residues 21-119) (human) (UniProt P55899); assay: Biacore SPR, pH 6.0, apparent affinity
[2] = target: biotinylated human FcRn (hFcRn; p51 subunit residues 24-297 with C-terminal Avi-tag, β2-m residues 21-119) (human) (UniProt P55899); assay: Biacore SPR; second ratio column (inverse of c7)
[3] = target: biotinylated human FcRn (hFcRn; p51 subunit residues 24-297 with C-terminal Avi-tag, β2-m residues 21-119) (human) (UniProt P55899); assay: Biacore SPR, pH 7.4, steady state, 1000 nM antibody
[4] = target: biotinylated human FcRn (hFcRn; p51 subunit residues 24-297 with C-terminal Avi-tag, β2-m residues 21-119) (human) (UniProt P55899); assay: Biacore SPR; pH 6.0 affinity (M^-1) over pH 7.4 steady state RU
[5] = target: biotinylated hFcRn (human) (UniProt P55899); assay: SPR Biacore, pH 6.0
rFcRn (rat) [6] = target: rFcRn (rat) (UniProt P13599); assay: SPR Biacore, pH 6.0
[7] = target: biotinylated hFcRn (human) (UniProt P55899); assay: SPR Biacore, pH 7.4
rFcRn (rat) [8] = target: rFcRn (rat) (UniProt P13599); assay: SPR Biacore, pH 7.4

Chain of rFcRn (rat) (P13599 23-298 limits assumed, form in doubt, chain 1 of 2): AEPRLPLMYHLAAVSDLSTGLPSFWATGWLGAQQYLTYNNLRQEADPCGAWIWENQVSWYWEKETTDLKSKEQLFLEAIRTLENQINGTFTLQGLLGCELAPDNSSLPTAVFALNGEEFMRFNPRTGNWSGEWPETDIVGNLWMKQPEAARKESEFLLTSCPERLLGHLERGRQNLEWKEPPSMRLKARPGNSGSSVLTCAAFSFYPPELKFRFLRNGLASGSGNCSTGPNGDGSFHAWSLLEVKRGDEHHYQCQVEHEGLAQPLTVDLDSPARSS
Chain of rFcRn (rat) (P07151 21-119 limits assumed, form in doubt, chain 2 of 2, further chain): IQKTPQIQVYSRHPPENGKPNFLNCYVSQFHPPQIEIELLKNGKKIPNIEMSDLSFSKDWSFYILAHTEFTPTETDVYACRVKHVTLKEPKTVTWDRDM
Chain of biotinylated human FcRn (hFcRn; p51 subunit residues 24-297 with C-terminal Avi-tag, β2-m residues 21-119) (human) (P55899 24-297, form in doubt, chain 1 of 2): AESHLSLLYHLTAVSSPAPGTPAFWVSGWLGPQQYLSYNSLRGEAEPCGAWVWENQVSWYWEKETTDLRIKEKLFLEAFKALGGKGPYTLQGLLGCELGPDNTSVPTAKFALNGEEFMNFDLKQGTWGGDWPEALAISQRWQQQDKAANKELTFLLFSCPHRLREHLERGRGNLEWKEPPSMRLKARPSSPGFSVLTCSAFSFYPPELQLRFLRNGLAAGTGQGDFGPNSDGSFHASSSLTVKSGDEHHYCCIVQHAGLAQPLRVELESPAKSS
Chain of biotinylated human FcRn (hFcRn; p51 subunit residues 24-297 with C-terminal Avi-tag, β2-m residues 21-119) (human) (P61769 21-119, form in doubt, chain 2 of 2, further chain): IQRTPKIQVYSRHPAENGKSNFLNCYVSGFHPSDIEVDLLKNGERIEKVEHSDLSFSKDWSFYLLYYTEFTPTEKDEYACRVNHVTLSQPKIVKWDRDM
Chain of biotinylated hFcRn (human) (P55899 24-297 limits assumed, form in doubt, chain 1 of 2): as the sequence (P55899 24-297, form in doubt, chain 1 of 2) above
Chain of biotinylated hFcRn (human) (P61769 21-119 limits assumed, form in doubt, chain 2 of 2, further chain): as the sequence (P61769 21-119, form in doubt, chain 2 of 2, further chain) above

Substance | Ka [1] [M⁻¹] | Steady State Binding, pH 7.4 (RU) [3] [RU] | Ratio (pH 6.0/pH 7.4) [4] | Ratio (pH 7.4/pH 6.0) [2] | also measured
mAb1 AAA variant (T307A/E380A/N434A) (antibody) | 562000 | 13.9 | 40400 |  | Ratio (pH 6.0/pH 7.4) [2]: 2.47e-05
mAb1 LS variant (M428L/N434S) (antibody) | 3.68e+06 | 18.3 | 201000 |  | Ratio (pH 6.0/pH 7.4) [2]: 4.97e-06
mAb1 M252Y/N434F (antibody) |  |  |  |  | Kd [5]: 18 nM; koff [5]: 0.023 s⁻¹; kon [5]: 1.27e+06 M⁻¹ s⁻¹; Kd (rFcRn (rat) [6]): 0.29 nM; koff (rFcRn (rat) [6]): 0.00012 s⁻¹; kon (rFcRn (rat) [6]): 403000 M⁻¹ s⁻¹; Steady State RU [7]: 43.8 RU; Steady State RU (rFcRn (rat) [8]): 79.3 RU
mAb1 M252Y/N434Y (antibody) |  |  |  |  | Kd [5]: 8.32 nM; koff [5]: 0.0171 s⁻¹; kon [5]: 2.06e+06 M⁻¹ s⁻¹; Kd (rFcRn (rat) [6]): 0.26 nM; koff (rFcRn (rat) [6]): 0.00014 s⁻¹; kon (rFcRn (rat) [6]): 540000 M⁻¹ s⁻¹; Steady State RU [7]: 54.1 RU; Steady State RU (rFcRn (rat) [8]): 67.9 RU
mAb1 M252Y/T256E (antibody) |  |  |  |  | Kd [5]: 128 nM; koff [5]: 0.0757 s⁻¹; kon [5]: 592000 M⁻¹ s⁻¹; Kd (rFcRn (rat) [6]): 8.43 nM; koff (rFcRn (rat) [6]): 0.00273 s⁻¹; kon (rFcRn (rat) [6]): 324000 M⁻¹ s⁻¹; Steady State RU [7]: 9.8 RU; Steady State RU (rFcRn (rat) [8]): 55.1 RU
mAb1 M252Y/T307Q (antibody) |  |  |  |  | Kd [5]: 278 nM; koff [5]: 0.096 s⁻¹; kon [5]: 345000 M⁻¹ s⁻¹; Kd (rFcRn (rat) [6]): 4.11 nM; koff (rFcRn (rat) [6]): 0.00105 s⁻¹; kon (rFcRn (rat) [6]): 255000 M⁻¹ s⁻¹; Steady State RU [7]: 10.6 RU; Steady State RU (rFcRn (rat) [8]): 49.2 RU
mAb1 M252Y/T307W (antibody) |  |  |  |  | Kd [5]: 118 nM; koff [5]: 0.057 s⁻¹; kon [5]: 483000 M⁻¹ s⁻¹; Kd (rFcRn (rat) [6]): 5.21 nM; koff (rFcRn (rat) [6]): 0.00109 s⁻¹; kon (rFcRn (rat) [6]): 208000 M⁻¹ s⁻¹; Steady State RU [7]: 15.9 RU; Steady State RU (rFcRn (rat) [8]): 66.1 RU
mAb1 MDQF variant (T256D/T307Q/N434F) (antibody) | 6.62e+06 | 55.3 | 120000 | 8.35e-06 | 
mAb1 MDQN variant (T256D/T307Q) (antibody) | 4.31e+06 | 10.7 | 403000 |  | Ratio (pH 6.0/pH 7.4) [2]: 2.48e-06
mAb1 MDQY variant (T256D/T307Q/N434Y) (antibody) | 3.69e+07 | 49.4 | 747000 | 1.34e-06 | 
mAb1 MDTF variant (T256D/N434F) (antibody) | 3.34e+07 | 29.2 | 1.14e+06 |  | Ratio (pH 6.0/pH 7.4) [2]: 8.74e-07
mAb1 MDTY variant (T256D/N434Y) (antibody) | 6.41e+07 | 37.1 | 1.73e+06 |  | Ratio (pH 6.0/pH 7.4) [2]: 5.79e-07
mAb1 MDWF variant (T256D/T307W/N434F) (antibody) | 2.81e+07 | 47.1 | 597000 | 1.68e-06 | 
mAb1 MDWN variant (T256D/T307W) (antibody) | 5.92e+06 | 12.2 | 485000 |  | Ratio (pH 6.0/pH 7.4) [2]: 2.06e-06
mAb1 MEQF variant (T256E/T307Q/N434F) (antibody) | 142000 |  |  |  | 
mAb1 MEQN variant (T256E/T307Q) (antibody) | 2e+06 |  |  |  | 
mAb1 MEQY variant (T256E/T307Q/N434Y) (antibody) | 2.38e+07 | 38.6 | 617000 | 1.62e-06 | 
mAb1 METF variant (T256E/N434F) (antibody) | 1.28e+07 | 23.3 | 549000 |  | Ratio (pH 6.0/pH 7.4) [2]: 1.82e-06
mAb1 METY variant (T256E/N434Y) (antibody) | 1.6e+07 | 26.8 | 597000 |  | Ratio (pH 6.0/pH 7.4) [2]: 1.68e-06
mAb1 MEWF variant (T256E/T307W/N434F) (antibody) | 5.62e+07 | 41.9 | 1.34e+06 | 7.46e-07 | 
mAb1 MEWN variant (T256E/T307W) (antibody) | 3.1e+06 |  |  |  | 
mAb1 MEWY variant (T256E/T307W/N434Y) (antibody) | 7.04e+07 | 46.6 | 1.51e+06 | 6.62e-07 | 
mAb1 MTQF variant (T307Q/N434F) (antibody) | 2.33e+07 | 34.2 | 681000 |  | Ratio (pH 6.0/pH 7.4) [2]: 1.47e-06
mAb1 MTQY variant (T307Q/N434Y) (antibody) | 3.09e+07 | 38.4 | 805000 |  | Ratio (pH 6.0/pH 7.4) [2]: 1.24e-06

Substance | Ka [1] [M⁻¹] | Steady State Binding, pH 7.4 (RU) [3] [RU] | Ratio (pH 6.0/pH 7.4) [4] | Ratio (pH 7.4/pH 6.0) [2] | also measured
mAb1 MTWF variant (T307W/N434F) (antibody) | 2.62e+07 | 30.5 | 859000 |  | Ratio (pH 6.0/pH 7.4) [2]: 1.16e-06
mAb1 MTWY variant (T307W/N434Y) (antibody) | 4.65e+07 | 37.2 | 1.25e+06 |  | Ratio (pH 6.0/pH 7.4) [2]: 8e-07
mAb1 T256D/N434F (antibody) |  |  |  |  | Kd [5]: 29.9 nM; koff [5]: 0.029 s⁻¹; kon [5]: 968000 M⁻¹ s⁻¹; Kd (rFcRn (rat) [6]): 1.78 nM; koff (rFcRn (rat) [6]): 0.00039 s⁻¹; kon (rFcRn (rat) [6]): 218000 M⁻¹ s⁻¹; Steady State RU [7]: 29.2 RU; Steady State RU (rFcRn (rat) [8]): 63 RU
mAb1 T256D/N434Y (antibody) |  |  |  |  | Kd [5]: 15.6 nM; koff [5]: 0.0285 s⁻¹; kon [5]: 1.83e+06 M⁻¹ s⁻¹; Kd (rFcRn (rat) [6]): 0.6 nM; koff (rFcRn (rat) [6]): 0.00025 s⁻¹; kon (rFcRn (rat) [6]): 413000 M⁻¹ s⁻¹; Steady State RU [7]: 37.1 RU; Steady State RU (rFcRn (rat) [8]): 71.6 RU
mAb1 T256E/N434F (antibody) |  |  |  |  | Kd [5]: 78.2 nM; koff [5]: 0.0419 s⁻¹; kon [5]: 536000 M⁻¹ s⁻¹; Kd (rFcRn (rat) [6]): 7.53 nM; koff (rFcRn (rat) [6]): 0.00081 s⁻¹; kon (rFcRn (rat) [6]): 108000 M⁻¹ s⁻¹; Steady State RU [7]: 23.3 RU; Steady State RU (rFcRn (rat) [8]): 59 RU
mAb1 T256E/N434Y (antibody) |  |  |  |  | Kd [5]: 62.6 nM; koff [5]: 0.0393 s⁻¹; kon [5]: 628000 M⁻¹ s⁻¹; Kd (rFcRn (rat) [6]): 7.71 nM; koff (rFcRn (rat) [6]): 0.00098 s⁻¹; kon (rFcRn (rat) [6]): 127000 M⁻¹ s⁻¹; Steady State RU [7]: 26.8 RU; Steady State RU (rFcRn (rat) [8]): 62.2 RU
mAb1 T256E/T307Q (antibody) |  |  |  |  | Kd [5]: 499 nM; Kd (rFcRn (rat) [6]): 10.7 nM; Steady State RU (rFcRn (rat) [8]): 23.4 RU
mAb1 T256E/T307W (antibody) |  |  |  |  | Kd [5]: 323 nM; Kd (rFcRn (rat) [6]): 10.6 nM; Steady State RU (rFcRn (rat) [8]): 33 RU
mAb1 T307Q/N434F (antibody) |  |  |  |  | Kd [5]: 42.9 nM; koff [5]: 0.0246 s⁻¹; kon [5]: 574000 M⁻¹ s⁻¹; Kd (rFcRn (rat) [6]): 3.89 nM; koff (rFcRn (rat) [6]): 0.0004 s⁻¹; kon (rFcRn (rat) [6]): 104000 M⁻¹ s⁻¹; Steady State RU [7]: 34.2 RU; Steady State RU (rFcRn (rat) [8]): 62.5 RU
mAb1 YDQN variant (M252Y/T256D/T307Q) (antibody) | 8.7e+06 | 19.8 | 439000 | 2.28e-06 | 
mAb1 YDTF variant (M252Y/T256D/N434F) (antibody) | 2.96e+07 | 57.7 | 513000 | 1.95e-06 | 
mAb1 YDTN variant (M252Y/T256D) (antibody) | 1.07e+07 | 9.7 | 1.1e+06 |  | Ratio (pH 6.0/pH 7.4) [2]: 9.07e-07
mAb1 YDWN variant (M252Y/T256D/T307W) (antibody) | 1.01e+07 | 25.9 | 390000 | 2.56e-06 | 
mAb1 YEQN variant (M252Y/T256E/T307Q) (antibody) | 4.59e+06 | 15.2 | 302000 | 3.31e-06 | 
mAb1 YETN variant (M252Y/T256E) (antibody) | 7.81e+06 | 9.8 | 797000 | 1.25e-06 | 
mAb1 YETY variant (M252Y/T256E/N434Y) (antibody) | 3.34e+07 | 22.6 | 1.48e+06 | 6.77e-07 | 
mAb1 YEWN variant (M252Y/T256E/T307W) (antibody) | 6.41e+06 | 69.6 | 92100 | 1.09e-05 | 
mAb1 YTE variant (M252Y/S254T/T256E) (antibody) | 2.92e+06 | 13.2 | 221000 |  | Ratio (pH 6.0/pH 7.4) [2]: 4.52e-06
mAb1 YTQF variant (M252Y/T307Q/N434F) (antibody) | 5.65e+07 | 59.9 | 943000 | 1.06e-06 | 
mAb1 YTQN variant (M252Y/T307Q) (antibody) | 3.6e+06 | 10.6 | 340000 |  | Ratio (pH 7.4 steady state RU / pH 6.0 affinity) [2]: 2.94e-06
mAb1 YTQY variant (M252Y/T307Q/N434Y) (antibody) | 6.33e+07 | 71.5 | 885000 | 1.13e-06 | 
mAb1 YTTF variant (M252Y/N434F) (antibody) | 5.56e+07 | 43.8 | 1.27e+06 | 7.88e-07 | 
mAb1 YTWF variant (M252Y/T307W/N434F) (antibody) | 6.54e+07 | 62.6 | 1.04e+06 |  | Ratio (pH 7.4 steady-state RU / pH 6.0 affinity) [2]: 9.57e-07
mAb1 YTWN variant (M252Y/T307W) (antibody) | 8.47e+06 | 15.9 | 533000 | 1.88e-06 | 
